Data on three sequences can be found in patent US20230357838.

Data set [1] concerns EcDa01 (Escherichia coli).
Data set [2] has as its system d22_PeDa01 (Pseudomonas entomophila).
Where [3] appears, read: 5fC at all four C of the listed strand sites.
Setting [4] is: 5caC at all four C of the listed strand sites.

Read-outs that look alike come from different tables or passages of the source.

As to “AAATTTAATTATAAAACGATCGACGACGAAATAATAAAAA (double strand) [40 bp 5fC oligo]”, the activity (fraction deaminated) came out at 0.01 in data set [1] (setting [3]) and 0 in data set [2] (setting [3]).

Take “AAATTTAATTATAAAACGATCGACGACGAAATAATAAAAA (double strand) [40 bp control C oligo]”: the activity (fraction deaminated) in data set [1] was determined as 0.6; in data set [2], 0.14.

As to “AAATTTAATTATAAAACGATCGACGACGAAATAATAAAAA (double strand) [40 bp 5caC oligo]”, the activity (fraction deaminated) in data set [1] (setting [4]) and in data set [2] (setting [4]) was 0 in each case.
